# Reference: patent US12156920B2, “Double-labeled probe for molecular imaging and use thereof” (Deutsches Krebsforschungszentrum, priority 2017, dated 2024)
# Values joined by “and” are separate entries in the source; they are usually repeats but may differ in a detail not shown here. Equal values may be shown once. Read-outs that look alike come from different tables or passages of the source.
# Legend:
# PSMA = target: T1, PSMA (Homo sapiens, UniProt Q04609); test: Competitive cell binding assay on LNCaP cells (PSMA binding affinity); conditions: competition against 0.2 nM 68Ga-labeled PSMA-10
# T1 construct: endogenous in cells; host or cells: LNCaP cells (ATCC CRL-1740)
# T1 sequence (Q04609 whole entry): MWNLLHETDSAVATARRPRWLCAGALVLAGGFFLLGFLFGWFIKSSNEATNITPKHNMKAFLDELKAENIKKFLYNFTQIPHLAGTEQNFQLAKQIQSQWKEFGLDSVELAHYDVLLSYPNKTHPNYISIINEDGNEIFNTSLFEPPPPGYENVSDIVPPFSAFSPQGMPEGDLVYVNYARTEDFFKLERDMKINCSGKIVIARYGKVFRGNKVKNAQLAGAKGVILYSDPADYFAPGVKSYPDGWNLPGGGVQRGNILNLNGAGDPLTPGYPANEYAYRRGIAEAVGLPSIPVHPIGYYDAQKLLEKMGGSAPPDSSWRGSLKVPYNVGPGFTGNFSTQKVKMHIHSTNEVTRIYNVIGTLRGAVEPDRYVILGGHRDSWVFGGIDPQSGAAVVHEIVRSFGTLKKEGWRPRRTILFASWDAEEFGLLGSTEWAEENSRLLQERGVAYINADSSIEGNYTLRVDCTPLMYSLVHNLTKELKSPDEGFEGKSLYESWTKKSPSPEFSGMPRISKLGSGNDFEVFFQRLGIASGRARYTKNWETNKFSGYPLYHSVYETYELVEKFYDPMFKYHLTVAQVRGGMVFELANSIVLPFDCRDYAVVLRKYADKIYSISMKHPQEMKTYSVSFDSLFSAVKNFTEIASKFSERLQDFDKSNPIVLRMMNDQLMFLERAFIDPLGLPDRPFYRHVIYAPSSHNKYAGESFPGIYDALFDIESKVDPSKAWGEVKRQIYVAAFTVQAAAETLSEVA
# Protocol: (§1) PSMA^+ LNCaP cells (ATCC CRL-1740) were cultured in RPMI medium supplemented with 10% fetal calf serum and 2 mmol/L L-glutamine (all from PAA). Cells were grown at 37° C. in humidified air with 5% CO2 and were harvested using trypsin-ethylenediaminetetraacetic acid (trypsin-EDTA; 0.25% trypsin, 0.02% EDTA, Invitrogen).
# The competitive cell binding assay and internalization experiments were performed as described previously (4). Briefly, the cells (10^5 per well) were incubated with a 0.2 nM solution of ^68Ga-labeled radioligand [Glu-urea-Lys(Ahx)]2-HBED-CC (PSMA-10, precursor ordered from ABX, Radeberg, Germany) in the presence of 12 different concentrations of analyte (0-5000 nM, 100 μL/well). After incubation, the mixture was removed and the wells were washed 3 times with PBS using a multiscreen vacuum manifold (Millipore, Billerica, Mass.). Cell-bound radioactivity was measured using a gamma counter (Packard Cobra II, GMI, Minnesota, USA). The 50% inhibitory concentration (IC50) values were calculated by fitting the data using a nonlinear regression algorithm (GraphPad Software).
# PSMA+ LNCaP cells = test: Internalization experiments (specific cell surface bound and internalized fractions); format: cell-based; conditions: 68Ga-labeled compound 30 nM, 45 min
# Protocol: as §1
# For internalization experiments, 10^5 cells per well were seeded in poly-L-lysine coated 24-well cell culture plates 24 h before incubation. After washing, the cells were incubated with 30 nM of the radiolabeled compound for 45 min at 37° C. and at 4° C., respectively. Cellular uptake was terminated by washing 3 times with 1 mL of ice-cold PBS. To remove surface-bound radioactivity, cells were incubated twice with 0.5 mL glycine-HCl in PBS (50 mM, pH=2.8) for 5 min. The cells were washed with 1 mL of ice-cold PBS and lysed using 0.3 N NaOH (0.5 mL). The surface-bound and the internalized fractions were measured in a gamma counter. The cell uptake was calculated as percent of the initially added radioactivity bound to 10^5 cells [% ID/10^5 cells].
# [1] = system: LNCaP-tumor bearing balb/c nu/nu mice; test: Biodistribution (organ distribution) of 68Ga-labeled compounds; format: in vivo
# Protocol: (§2) The precursor peptides [1 nmol in HEPES buffer (580 mg/ml), 90 μL] were added to 40 μL [^68Ga]Ga^3+ eluate (˜40 MBq). The pH was adjusted to 3.8 using 30% NaOH and 10% NaOH, respectively. The reaction mixture was incubated at 98° C. for 10 minutes. The radiochemical yield (RCY) was determined by HPLC. For the experimental tumor models 5×10^6 cells of LNCaP (in 50% Matrigel; Becton Dickinson, Heidelberg, Germany) were subcutaneously inoculated into the right trunk of 7- to 8-week-old male BALB/c nu/nu mice (Charles River). The tumors were allowed to grow until approximately 1 cm^3 in size. The ^68Ga-labeled compounds were injected into a tail vein (1-2 MBq; 60 pmol). […] Organs of interest were dissected, blotted dry, and weighed. The radioactivity was measured using a gamma counter and calculated as % ID/g. All animal experiments complied with the current laws of the Federal Republic of Germany.
# [2] = as above; format: in vivo, mice; conditions: male, BALB/c nu/nu, mouse, iv, 60 pmol, total radioactivity
# Protocol: as §2
# [3] = 68Ga labeled, 1 h p.i., tail vein
# [4] = listed as PSMA-HBED-CC-PEG2-IRDye8000CW
# [5] = in vivo, Organ distribution Blood
# [6] = in vivo, Organ distribution Brain
# [7] = in vivo, Organ distribution Heart
# [8] = in vivo, Organ distribution Intestine
# [9] = in vivo, Organ distribution Kidney
# [10] = in vivo, Organ distribution Liver
# [11] = in vivo, Organ distribution Lung
# [12] = in vivo, Organ distribution Muscle
# [13] = in vivo, Organ distribution Spleen
smiles,measurement,setting,value
"O=C(O)CCc1ccc(O)c(CN(CCN(CC(=O)O)Cc2cc(CCC(=O)NCCCCCC(=O)NCCCCC(NC(=O)NC(CCC(=O)O)C(=O)O)C(=O)O)ccc2O)CC(=O)O)c1 (stereo not drawn) [PSMA-11, Glu-urea-Lys-(Ahx)-HBED-CC, reference compound]",Ki,PSMA,9.82 ± 1.26 nM
same,Specific cell surface bound,PSMA+ LNCaP cells,2.31 ± 0.61 % ID/10^5 cells
same,Specific internalized,PSMA+ LNCaP cells,3.57 ± 0.51 % ID/10^5 cells
same,Organ distribution Liver,[1]; 68Ga labeled,0.34 % ID/g
same,Organ distribution Lung,[1]; 68Ga labeled,1.19 % ID/g
same,Tumor-to-Organ ratio T/Blood,"[1]; 68Ga labeled, 1 h p.i.",9.23
same,Tumor-to-Organ ratio T/Brain,"[1]; 68Ga labeled, 1 h p.i.",12.23
same,Tumor-to-Organ ratio T/Heart,"[1]; 68Ga labeled, 1 h p.i.",5.89
same,Tumor-to-Organ ratio T/Intestine,"[1]; 68Ga labeled, 1 h p.i.",4.29
same,Tumor-to-Organ ratio T/Kidney,"[1]; 68Ga labeled, 1 h p.i.",0.04
same,Tumor-to-Organ ratio T/Liver,"[1]; 68Ga labeled, 1 h p.i.",3.42
same,Tumor-to-Organ ratio T/Lung,"[1]; 68Ga labeled, 1 h p.i.",2.07
same,Tumor-to-Organ ratio T/Muscle,"[1]; 68Ga labeled, 1 h p.i.",4.89
same,Tumor-to-Organ ratio T/Spleen,"[1]; 68Ga labeled, 1 h p.i.",0.27
same,Organ distribution Tumor (tumor accumulation),"[1]; 68Ga labeled, 1 h p.i., LNCaP tumor",4.89±1.34 % ID/g and 4.89 % ID/g
same,Organ distribution Blood,[1]; [3],0.53 % ID/g
same,Organ distribution Brain,[1]; [3],0.40 % ID/g
same,Organ distribution Heart,[1]; [3],0.83 % ID/g
same,Organ distribution Intestine,[1]; [3],1.14 % ID/g
same,Organ distribution Kidney,[1]; [3],139.44 % ID/g
same,Organ distribution Liver,[1]; [3],1.43 % ID/g
same,Organ distribution Lung,[1]; [3],2.36 % ID/g
same,Organ distribution Muscle,[1]; [3],1.00 % ID/g
same,Organ distribution Spleen,[1]; [3],17.88 % ID/g
same,Organ distribution Blood,"[1]; 68Ga labeled, 2 h p.i.",0.32 % ID/g
same,Organ distribution Brain,"[1]; 68Ga labeled, 2 h p.i.",0.23 % ID/g
same,Organ distribution Heart,"[1]; 68Ga labeled, 2 h p.i.",0.31 % ID/g
same,Organ distribution Intestine,"[1]; 68Ga labeled, 2 h p.i.",1.19 % ID/g
same,Organ distribution Kidney,"[1]; 68Ga labeled, 2 h p.i.",129.73 % ID/g
same,Organ distribution Muscle,"[1]; 68Ga labeled, 2 h p.i.",2.06 % ID/g
same,Organ distribution Spleen,"[1]; 68Ga labeled, 2 h p.i.",12.41 % ID/g
same,Organ distribution Tumor,"[1]; 68Ga labeled, 2 h p.i., LNCaP tumor",6.09 % ID/g
"CC1(C)C(/C=C/C2=C(Oc3ccc(S(=O)(=O)O)cc3)C(=C\C=C3/N(CCCCS(=O)(=O)O)c4ccc(S(=O)(=O)O)cc4C3(C)C)/CCC2)=[N+](CCCCCC(=O)NCCOCCOCCNC(=O)CCc2ccc(O)c(CN(CCN(CC(=O)O)Cc3cc(CCC(=O)NCCCCC(NC(=O)NC(CCC(=O)O)C(=O)O)C(=O)O)ccc3O)CC(=O)O)c2)c2ccc(S(=O)(=O)O)cc21 (stereo not drawn) [PSMA-HBED-CC-PEG2-IRDye800CW, Glu-urea-Lys-HBED-CC-PEG2-IRDye800CW, reference compound]",Ki,PSMA,17.5 ± 4.98 nM
same,Specific cell surface bound,PSMA+ LNCaP cells,improved
same,Specific internalized,PSMA+ LNCaP cells,improved
same,Specific cell surface bound,PSMA+ LNCaP cells; [4],13.62 ± 4.79 % ID/10^5 cells
same,Specific internalized,PSMA+ LNCaP cells; [4],18.70 ± 7.03 % ID/10^5 cells
same,tissue uptake at 1 h,[2]; [5],3.04 %ID/g
same,tissue uptake at 2 h,[2]; [5],0.76 %ID/g
same,tissue uptake at 1 h,[2]; [6],0.43 %ID/g
same,tissue uptake at 2 h,[2]; [6],0.22 %ID/g
same,tissue uptake at 1 h,[2]; [7],2.78 %ID/g
same,tissue uptake at 2 h,[2]; [7],1 %ID/g
same,tissue uptake at 1 h,[2]; [8],2.41 %ID/g
same,tissue uptake at 2 h,[2]; [8],1.37 %ID/g
same,tissue uptake at 1 h,[2]; [9],205 %ID/g
same,tissue uptake at 2 h,[2]; [9],120 %ID/g
same,tissue uptake at 1 h,[2]; [10],2.76 %ID/g
same,tissue uptake at 2 h,[2]; [10],1.21 %ID/g
same,tissue uptake at 1 h,[2]; [11],5.6 %ID/g
same,tissue uptake at 2 h,[2]; [11],2.53 %ID/g
same,tissue uptake at 1 h,[2]; [12],2.86 %ID/g
same,tissue uptake at 2 h,[2]; [12],1.96 %ID/g
same,tissue uptake at 1 h,[2]; [13],38.1 %ID/g
same,tissue uptake at 2 h,[2]; [13],13.7 %ID/g
same,tissue uptake at 2 h,"[2]; in vivo, Organ distribution Tumor",7.94 %ID/g
same,tissue uptake at 1 h,"[2]; in vivo, Organ distribution Tumor (tumor accumulation)",13.7 %ID/g
same,tissue to tissue ratio at 1 h,"[2]; in vivo, Tumor-to-Organ ratio T/Blood",4.49
same,tissue to tissue ratio at 1 h,"[2]; in vivo, Tumor-to-Organ ratio T/Brain",31.4
same,tissue to tissue ratio at 1 h,"[2]; in vivo, Tumor-to-Organ ratio T/Heart",4.92
same,tissue to tissue ratio at 1 h,"[2]; in vivo, Tumor-to-Organ ratio T/Intestine",5.66
same,tissue to tissue ratio at 1 h,"[2]; in vivo, Tumor-to-Organ ratio T/Liver",4.94
same,tissue to tissue ratio at 1 h,"[2]; in vivo, Tumor-to-Organ ratio T/Lung",2.44
same,tissue to tissue ratio at 1 h,"[2]; in vivo, Tumor-to-Organ ratio T/Muscle",4.78
same,tissue to tissue ratio at 1 h,"[2]; in vivo, Tumor-to-Organ ratio T/Spleen",0.36
same,tissue to tissue ratio at 1 h,"[2]; tumor and kidney, 68Ga labeled, 1 h p.i., read-out: Tumor-to-Organ ratio T/Kidney",0.07
same,Tumor-to-Organ ratio T/Kidney,"[1]; 68Ga labeled, 1 h p.i.",0.07
same,Tumor-to-Organ ratio T/Blood,"[1]; mouse, in vivo",4.49
same,Tumor-to-Organ ratio T/Brain,"[1]; mouse, in vivo",31.39
same,Tumor-to-Organ ratio T/Heart,"[1]; mouse, in vivo",4.92
same,Tumor-to-Organ ratio T/Intestine,"[1]; mouse, in vivo",5.66
same,Tumor-to-Organ ratio T/Liver,"[1]; mouse, in vivo",4.94
same,Tumor-to-Organ ratio T/Lung,"[1]; mouse, in vivo",2.44
same,Tumor-to-Organ ratio T/Muscle,"[1]; mouse, in vivo",4.78
same,Tumor-to-Organ ratio T/Spleen,"[1]; mouse, in vivo",0.36
